Measurements published in patent US20030165897A1 (published 2003).

Biological target: T1, Patched (Ptc) (Drosophila, UniProt P18502 1-1286)
T1 construct: whole, on cells; Endogenous protein in vivo
T1 sequence (looked up): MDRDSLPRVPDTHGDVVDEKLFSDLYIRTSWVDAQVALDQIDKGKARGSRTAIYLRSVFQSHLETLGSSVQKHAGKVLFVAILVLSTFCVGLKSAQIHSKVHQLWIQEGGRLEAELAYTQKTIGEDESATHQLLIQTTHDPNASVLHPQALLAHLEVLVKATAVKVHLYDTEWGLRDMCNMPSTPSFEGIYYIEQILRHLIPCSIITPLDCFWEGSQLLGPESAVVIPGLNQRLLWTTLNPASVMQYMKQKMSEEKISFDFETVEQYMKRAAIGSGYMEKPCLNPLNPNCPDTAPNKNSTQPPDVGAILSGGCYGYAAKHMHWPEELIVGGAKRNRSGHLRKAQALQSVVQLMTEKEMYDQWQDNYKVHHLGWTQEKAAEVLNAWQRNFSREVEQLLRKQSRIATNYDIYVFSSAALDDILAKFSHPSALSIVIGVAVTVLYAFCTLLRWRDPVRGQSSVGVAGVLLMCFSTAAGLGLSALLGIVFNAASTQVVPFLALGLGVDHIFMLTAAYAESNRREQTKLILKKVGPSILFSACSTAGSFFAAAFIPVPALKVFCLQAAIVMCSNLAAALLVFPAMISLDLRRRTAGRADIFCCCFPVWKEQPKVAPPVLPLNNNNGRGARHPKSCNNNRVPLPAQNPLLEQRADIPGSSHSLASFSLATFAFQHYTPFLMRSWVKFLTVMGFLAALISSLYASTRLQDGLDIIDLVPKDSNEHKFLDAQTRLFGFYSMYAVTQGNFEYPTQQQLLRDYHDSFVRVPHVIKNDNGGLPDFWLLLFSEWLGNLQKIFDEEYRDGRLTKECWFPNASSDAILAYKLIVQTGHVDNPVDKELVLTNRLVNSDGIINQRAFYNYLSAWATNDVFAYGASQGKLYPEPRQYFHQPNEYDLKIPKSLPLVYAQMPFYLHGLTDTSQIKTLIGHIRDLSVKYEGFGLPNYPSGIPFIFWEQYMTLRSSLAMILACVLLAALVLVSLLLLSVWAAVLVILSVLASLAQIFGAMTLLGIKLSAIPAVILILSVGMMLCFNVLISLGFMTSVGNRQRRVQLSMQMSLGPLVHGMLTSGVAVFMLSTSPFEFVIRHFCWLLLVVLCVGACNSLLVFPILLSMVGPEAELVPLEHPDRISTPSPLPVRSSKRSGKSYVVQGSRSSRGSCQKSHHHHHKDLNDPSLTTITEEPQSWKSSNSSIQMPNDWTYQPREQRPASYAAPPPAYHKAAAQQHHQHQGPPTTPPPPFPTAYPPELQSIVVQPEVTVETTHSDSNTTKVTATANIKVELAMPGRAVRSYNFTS
Assay: in vivo immunostaining of wing imaginal discs (punctuate staining in anterior cells); hh-N^HA under en-Gal4 in hh ts2/ts2 animals at the non-permissive temperature
Excerpt: Expression of Hh-Nu in P cells of the wing imaginal disc results in dpp-lacZ expression in the entire A compartment of the disc, and a consequent dramatic enlargement of the A compartment. Thus Hh-Nu appears to have a range of action at least five fold larger than that of wild-type Hh. However, since this and previous experiments have been performed in the presence of endogenous Hh, it could not be ruled out that the observed extension of Hh activity depends on, or is even mediated by, endogenous Hh-Np whose range might be expanded in the presence of Hh-Nu. To address this, we created a situation where Hh-Nu is the sole source of Hh in imaginal discs by expressing hh-N^HA in P cells under en-Ga14 in hh^{ts2/ts2} animals that were shifted to the non-permissive temperature during early larval stages. […] Thus Hh-Nu alone is able to associate with Ptc and signal in vivo. The cholesterol anchor of Hh appears to be required for the sequestration of Hh by Ptc, since untethered Hh is seemingly unrestricted in its range. We cannot currently rule out the possibility that Hh-Nu is also, at least partially, sequestered by Ptc but that extracellular Hh-Nu levels are abnormally high and saturate the capacity of Ptc.
hh-temperature sensitive animals were generated using the hh^ts2 allel (Ma et al., 1993) balanced over the TM6b[Tb]balancer. […]

B1: Hh-Nu (cholesterol-free N-terminal portion of Drosophila Hedgehog, product of the hh-N^HA transgene) (ligand, not shown: small tags and cut ends)
chain: not shown
modifications: no C-terminal cholesterol (cholesterol-free)
notes: Expressed in P cells of wing imaginal discs under en-Gal4 in hh ts2/ts2 animals; also called unmodified Hh-Nu; untethered Hh
**Q.** Does B1 bind?
**A.** Result: binds
